Results as given in US20100028366A1, “SYNERGISTIC EFFECT BETWEEN A […] AND ANOTHER OXIDATIVE INDUCING SYSTEM FOR TREATING TUMORS” (priority 2005, published 2010).

Legend:
[1] = test system: W&Wlis cells; assay: DNA content analysis by flow cytometry, labeling with propidium iodide; type: cell-based, canine; parameters: unit not given here; details: 0 μg lin, 5 mEU/ml GO
[2] = test system: W&Wlis cells; assay: Analysis of the type of death by flow cytometry (annexin V-FITC/propidium iodide); type: cell-based, canine
Protocol: The annexin V-FITC and propidium iodide assay was performed in parallel by flow cytometry. The pattern of death of the system was analyzed when adding 5 mEU/ml of glucose oxidase and the combined therapy (5 mEU/ml of GO and 500 μg/ml of linamarin) at 48 hours, followed by the control of untreated cells and of the cells incubated with 500 μg/ml of linamarin at 96 hours. Furthermore, another group of cells was subjected to the same conditions except 10 mM of N-acetyl cysteine (NAC) were added. The cells treated with the combined therapy were subsequently studied at 48 hours in the absence and presence of 100 μM of Z-VAD-fmk, followed by the control of treatment of the cells with UV in the same conditions. Finally, the cells treated with the combined therapy were shown at 48 hours in the absence and presence of 300 μM of 1,5-isoquinolinediol (DIQ), observing that the pattern of death is not modified when PARP-1 is inhibited (FIG. 4).
10^5 W&Wlis cells were seeded in test tubes with a screw-on cap and flat side (Nunc). After 24 hours, different amounts of linamarin (50, 200 or 500 μg/ml) and glucose oxidase (5 mEU/ml) were added in the specified cases. In the appropriate assays, the medium was supplemented with N-acetyl cysteine (10 mM), 1,5-isoquinolinediol (300 μM) or Z-VAD-fmk (100 μM). […] They were centrifuged for 5 minutes at 1200 rpm and the cell precipitate was washed first with PBS and then with binding buffer (0.1 M Hepes/NaOH pH 7.4, 1.4 M NaCl and 25 mM CaCl2). The cells were again precipitated and resuspended in 100 μl of binding buffer supplemented with 5 μl of annexin V-FITC and 2.5 μg/ml of propidium iodide. The samples were incubated for 15 minutes in the dark. Data acquisition and analysis was carried out by means of a FACSCalibur flow cytometer (DB Biosciences) with the Cell Quest program.

[3] = test system: W&Wlis cells; assay: Determination of the extracellular peroxide concentration; type: cell-based, canine; details: 48 hours; 0.5 mg/ml of linamarin and/or 5 mEU/ml of glucose oxidase; control approximately 20 μM
Protocol: The H2O2 levels (FIG. 3B) produced extracellularly in the combined therapy were further studied in the invention. To do so, the amount of H2O2 present in the culture medium of W&Wlis cells at 48 hours in a treatment with 0.5 mg/ml of linamarin, in the presence of 5 mEU/ml of glucose oxidase or in the combination of both treatments, was analyzed although positive results were also obtained using other concentrations.
The samples to be analyzed were diluted in 1 ml of 0.1 M phosphate buffer pH 7.4. Then 3.7 EU/ml of peroxidase (Sigma-Aldrich, St. Louis, USA) and 0.1 mg/ml of ortho-dianisidine (Sigma-Aldrich, St. Louis, USA) were added. The samples were incubated at room temperature for 30 minutes and absorbances at 436 nm were determined. The H2O2 concentration was obtained by interpolation of the data obtained in a standard line performed with increasing concentrations of H2O2.

[4] = test system: W&Wlis cells; assay: Measurement of intracellular ATP; type: cell-based, canine; details: linamarin (500 μg/ml) and/or glucose oxidase (5 mEU/ml), over time, versus untreated cells
Protocol: The levels of intracellular energy in the form of ATP decrease when a blockage of the mitochondrial electron transport chain occurs since it is the essential source of obtaining energy of the cells. […] This effect is due to the fact that the maximum H2O2 production by glucose oxidase occurs at short times because the cells have the ability of detoxifying the peroxide and due to the fact that glucose oxidase is inactivated over time by the serum proteins.
10^5 W&Wlis cells were seeded in test tubes with a screw-on cap and flat side (Nunc). After 24 hours, the medium was changed, adding linamarin (500 μg/ml) and glucose oxidase (5 mEU/ml) where appropriate. After 4, 8, 12, 24, 48 or 72 hours, the cells were centrifuged and processed following the instructions of the ATP Bioluminescence Assay Kit CLS II, of Roche Applied Science. The luminescence was analyzed with a Monolight 2010 luminometer (Analytical Luminescence Laboratory, San Diego) and expressed in relative light units (RLU).

[5] = test system: W&Wlis cells; assay: Structural modifications of the mitochondrion (pDsRed2-mito, confocal microscopy); type: cell-based, canine; details: linamarin 500 μg/ml from 48 hours; glucose oxidase 5 mEU/ml; combination after 24 hours
Protocol: For the purpose of studying the mitochondrial dynamics occurring as a result of the oxidative stress caused by the activity of the claimed system, W&Wlis cells were stably transfected with the plasmid pdsRed2-mito (Clontech) containing the gene of the one red fluorescent protein carried by a transport signal peptide to the mitochondrion. This allowed viewing the mitochondria of cells treated with linamarin and glucose oxidase by fluorescence microscopy. […] This effect starts to be observed 48 hours after treatment with linamarin (FIG. 1B) and becomes more pronounced after 72 hours, a slight swelling of the fragments (FIG. 1C) being observed.
To study the structural modifications of the mitochondrion during therapy, the W&W and W&Wlis cells were transfected with the plasmid pDsRed2-mito (Clontech, BD Bioscience) containing the gene of a red fluorescent protein which is expressed exclusively in mitochondria. The transfection was performed similarly to the previous section and clones were selected by resistance to neomycin (0.75 and 1.5 mg/ml respectively). The cells from stable expression clones of the protein were seeded in multiwell plates on cover slips (2.5×10^4) and were treated with linamarin (50, 200 or 500 μg/ml) and glucose oxidase (5 mEU/ml). After the suitable incubation time for each experiment (24, 48 or 72 hours) elapsed, the cells were fixed with 4% paraformaldehyde. […]

[6] = test system: W&Wlis cells; assay: AIF location study by immunofluorescence; type: cell-based, canine; details: 5 mEU/ml glucose oxidase, with or without 500 μg/ml linamarin
Protocol: Nevertheless, the activation of AIF could be caused by a mechanism that is PARP-1-independent (Cregan, 2004). AIF is a protein residing in the mitochondrion and when activated, it translocates to the nucleus in which it activates apoptosis. The possible translocation of AIF was analyzed by immunofluorescence with antibodies specific against AIF of W&Wlis cells treated with the therapy.
The cells were seeded on cover slips in 24-well plates and were treated according to the requirements of each experiment. After the appropriate incubation time for each assay, the cells were fixed with 4% paraformaldehyde for 30 minutes at room temperature or methanol at −20° C. for 10 minutes. The samples were subsequently permeabilized 10 minutes with PBS supplemented with triton X-100 or 0.1% sodium dodecyl sulfate (SDS) and were blocked by incubating for 30 minutes with PBS with 0.1% triton X-100 and with 1% bovine serum albumin, or PBS with 0.01% SDS and a 10% fetal calf serum. They were subsequently incubated for 45 minutes with the primary antibody at room temperature or overnight at 4° C. The antibodies used were anti-linamarase (1/200, supplied by Monica Hughes) and anti-AIF (1/50, Cell Signaling Technology). The secondary antibody used was anti-rabbit IgG coupled to fluorescein (1/50, Amersham Pharmacia Biotech). […]

[7] = test system: Swiss mice; assay: Toxicity of glucose oxidase in Swiss mice; type: in vivo; details: intraperitoneally and intravenously
Protocol: The toxicity of glucose oxidase was evaluated in Swiss mice weighing about 20 grams, intraperitoneally and intravenously inoculated with different amounts of the purified enzyme. […] This allowed establishing an optimal dose range for GO for the combined therapy in this type of animal.

[8] = 0 μg lin, 5 mEU/ml GO, 48 hours, NAC (10 mM)
[9] = Table 4, 0 μg lin, 5 mEU/ml GO, 48 hours, Z-VAD-fmk (100 μM)
[10] = Table 4, 0 μg lin, 5 mEU/ml GO, 48 hours, control (no Z-VAD-fmk)
[11] = Table 5, GO, 32 hours, DIQ (300 μM)
[12] = Table 5, GO, 32 hours, control (no DIQ)
[13] = Table 5, GO, 48 hours, DIQ (300 μM)
[14] = Table 5, GO, 48 hours, control (no DIQ)

B1: GO: glucose oxidase enzyme catalyzing the conversion of glucose into gluconic acid, generating hydrogen peroxide (protein, UniProt P13006 17-605, looked up)
Glucose oxidase: LPHYIRSNGIEASLLTDPKDVSGRTVDYIIAGGGLTGLTTAARLTENPNISVLVIESGSYESDRGPIIEDLNAYGDIFGSSVDHAYETVELATNNQTALIRSGNGLGGSTLVNGGTWTRPHKAQVDSWETVFGNEGWNWDNVAAYSLQAERARAPNAKQIAAGHYFNASCHGVNGTVHAGPRDTGDDYSPIVKALMSAVEDRGVPTKKDFGCGDPHGVSMFPNTLHEDQVRSDAAREWLLPNYQRPNLQVLTGQYVGKVLLSQNGTTPRAVGVEFGTHKGNTHNVYAKHEVLLAAGSAVSPTILEYSGIGMKSILEPLGIDTVVDLPVGLNLQDQTTATVRSRITSAGAGQGQAAWFATFNETFGDYSEKAHELLNTKLEQWAEEAVARGGFHNTTALLIQYENYRDWIVNHNVAYSELFLDTAGVASFDVWDLLPFTRGYVHILDKDPYLHHFAYDPQYFLNELDLLGQAAATQLARNISNSGAMQTYFAGETIPGDNLAYDADLSAWTEYIPYHFRPNYHGVGTCSMMPKEMGGVVDNAARVYGVQGLRVIDGSIPPTQMSSHVMTVFYAMALKISDAILEDYASMQ
DNA content by flow cytometry, labeling with propidium iodide ([1]; 24 hours): 1.94
DNA content by flow cytometry, labeling with propidium iodide ([1]; 48 hours): 1.03
Apoptosis ([2]; 0 μg lin, 5 mEU/ml GO, 24 h): 5.98
Necrosis ([2]; 0 μg lin, 5 mEU/ml GO, 24 h): 12.27
Apoptosis ([2]; 0 μg lin, 5 mEU/ml GO, 48 h): 8.34
Necrosis ([2]; 0 μg lin, 5 mEU/ml GO, 48 h): 4.50
Apoptosis [2, 8]: 5.98
Necrosis [2, 8]: 5.42
Apoptosis [2, 9]: 13.94
Necrosis [2, 9]: 18.92
Apoptosis [2, 10]: 3.27
Necrosis [2, 10]: 29.59
Apoptosis [2, 11]: 9.32
Necrosis [2, 11]: 16.69
Apoptosis [2, 12]: 6.50
Necrosis [2, 12]: 27.11
Apoptosis [2, 13]: 17.52
Necrosis [2, 13]: 20.89
Apoptosis [2, 14]: 12.92
Necrosis [2, 14]: 31.87
extracellular H2O2 concentration in the culture medium [3]: did not cause significant variations
intracellular ATP levels [4]: moderate and transitory reduction of ATP after 6 hours
mitochondrial pattern [5]: did not cause any structural change in most of the mitochondria
AIF location [6]: typically mitochondrial AIF pattern
toxicity ([7]; daily doses between 0.25 and 0.1 EU/g): no harmful effect
toxicity ([7]; doses of 1 and 0.5 EU/g, first 24 hours post-administration): lethal effect
